Measurements reported in the supplement of paper PMC10724198.
± gives the standard deviation of the averaged measurements.

Columns and labels:
Saccharomyces cerevisiae [1] = assay: protein stability index of tFT-peptide fusion (C-terminal peptide) (PSI (0-1 scale)); higher = more stable (slower turnover)
Experimental: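 MPS profiling in S. cerevisiae of the tFT-X12 degron library: putative degron peptides plus stable controls, 12 aa, fused to the C-terminus of a sfGFP-mCherry timer. Cells are FACS-sorted into 8 mCherry/sfGFP bins and deep-sequenced. PSI runs from 0 (unstable) to 1 (stable). Backgrounds are wild type, das1Δ and doa10Δ at 30 °C, and wild type, das1Δ, cdc34-1 and cdc53-1 at 37 °C; 2-3 technical replicates each.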

Saccharomyces cerevisiae [2] = assay: as above; conditions: genetic background: wild type; temperature: 30 C
[3] = genetic background: cdc34-1, temperature: 37 C
[4] = genetic background: cdc53-1, temperature: 37 C
[5] = genetic background: das1 deletion, temperature: 30 C
[6] = genetic background: das1 deletion, temperature: 37 C
[7] = genetic background: doa10 deletion, temperature: 30 C
[8] = genetic background: wild type, temperature: 30 C
[9] = genetic background: wild type, temperature: 37 C
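Also: PSI is a weighted mean of sequencing reads over stability bins, variants kept only with over 10 reads, mCherry proximal and sfGFP distal, peptide attached via GGGS linker.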

Sequence | protein stability index (Saccharomyces cerevisiae [1]; [3]) | protein stability index (Saccharomyces cerevisiae [1]; [4]) | protein stability index (Saccharomyces cerevisiae [1]; [5]) | protein stability index (Saccharomyces cerevisiae [1]; [6]) | protein stability index (Saccharomyces cerevisiae [1]; [7]) | protein stability index (Saccharomyces cerevisiae [1]; [8]) | protein stability index (Saccharomyces cerevisiae [1]; [9]) | protein stability index (Saccharomyces cerevisiae [2])
FLWLCLLSLFFR | 0.454 ± 0.069 | 0.383 ± 0.035 | 0.436 ± 0.018 | 0.548 ± 0.017 | 0.547 ± 0.01 | 0.434 ± 0.0099 | 0.498 ± 0.031 | 0.481 ± 0.018
FLYFLLQFLCSG | 0.517 ± 0.04 | 0.544 ± 0.0046 | 0.418 ± 0.034 | 0.597 ± 0.046 | 0.406 ± 0.0045 | 0.421 ± 0.029 | 0.579 ± 0.034 | 0.516 ± 0.034
FMCFVLPVFVLV | 0.247 ± 0.013 | 0.282 ± 0.034 | 0.222 ± 0.029 | 0.389 ± 0.0074 | 0.196 ± 0.018 | 0.212 ± 0.017 | 0.344 ± 0.014 | 0.306 ± 0.024
FNFFFSSVFLLV | 0.3037 ± 0.0011 | 0.252 ± 0.025 | 0.342 ± 0.048 | 0.436 ± 0.051 | 0.3 ± 0.022 | 0.19 ± 0.02 | 0.334 ± 0.029 | 0.299 ± 0.015
FPFFFLSILSAV | 0.262 ± 0.015 | 0.2944 ± 0.0028 | 0.256 ± 0.037 | 0.383 ± 0.0098 | 0.11 ± 0.0067 | 0.122 ± 0.023 | 0.168 ± 0.0078 | 0.177 ± 0.019
FPFVYRSVLLFF | 0.392 ± 0.052 | 0.484 ± 0.012 | 0.411 ± 0.033 | 0.577 ± 0.011 | 0.1059 ± 0.00044 | 0.0991 ± 0.021 | 0.216 ± 0.029 | 0.177 ± 0.089
FPPRLIPLLARS | 0.442 ± 0.028 | 0.4556 ± 0.00087 | 0.31 ± 0.044 | 0.511 ± 0.0063 | 0.2401 ± 0.0016 | 0.291 ± 0.025 | 0.4713 ± 0.0013 | 0.372 ± 0.02
FPSCYIWEVEVM | 0.403 ± 0.049 | 0.403 ± 0.021 | 0.32 ± 0.039 | 0.484 ± 0.038 | 0.268 ± 0.0021 | 0.333 ± 0.023 | 0.436 ± 0.0047 | 0.442 ± 0.037
FPSLLFALFLFI | 0.481 ± 0.046 | 0.502 ± 0.0056 | 0.436 ± 0.027 | 0.5271 ± 0.00065 | 0.4401 ± 0.0013 | 0.415 ± 0.036 | 0.501 ± 0.018 | 0.475 ± 0.017
FPVSSRSFSFIP | 0.66 ± 0.051 | 0.7594 ± 0.0028 | 0.666 ± 0.02 | 0.732 ± 0.019 | 0.627 ± 0.02 | 0.656 ± 0.028 | 0.717 ± 0.053 | 0.727 ± 0.046
FRFYCGLVIANV | 0.455 ± 0.016 | 0.484 ± 0.029 | 0.385 ± 0.019 | 0.51729 ± 0.00021 | 0.359 ± 0.03 | 0.377 ± 0.031 | 0.531 ± 0.039 | 0.483 ± 0.027
FSCLCLCVATSG | 0.348 ± 0.031 | 0.396 ± 0.056 | 0.221 ± 0.019 | 0.379 ± 0.015 | 0.237 ± 0.031 | 0.219 ± 0.023 | 0.355 ± 0.03 | 0.23 ± 0.013
FSFSAFARFLVI | 0.618 ± 0.048 | 0.704 ± 0.02 | 0.604 ± 0.033 | 0.6999 ± 0.0034 | 0.243 ± 0.0081 | 0.255 ± 0.025 | 0.378 ± 0.018 | 0.358 ± 0.036
FSFSCFFFVLFV | 0.0608 ± 0.036 | 0.0424 ± 0.002 | 0.0913 ± 0.018 | 0.11 ± 0.022 | 0.265 ± 0.0023 | 0.0703 ± 0.038 | 0.0898 ± 0.017 | 0.127 ± 0.0048
FSFSFYFALASF | 0.474 ± 0.047 | 0.514 ± 0.0099 | 0.425 ± 0.018 | 0.495 ± 0.011 | 0.41 ± 0.0077 | 0.422 ± 0.0075 | 0.483 ± 0.034 | 0.4603 ± 0.00095
FTFLFPLRLLPL | 0.305 ± 0.051 | 0.295 ± 0.025 | 0.377 ± 0.036 | 0.478 ± 0.015 | 0.586 ± 0.033 | 0.374 ± 0.009 | 0.442 ± 0.011 | 0.3469 ± 0.00084
FVFCGVVFLFLL | 0.399 ± 0.033 | 0.467 ± 0.0057 | 0.395 ± 0.058 | 0.519 ± 0.018 | 0.347 ± 0.0093 | 0.326 ± 0.018 | 0.462 ± 0.0044 | 0.351 ± 0.086
FVFIFIRVFFFR | 0.174 ± 0.0037 | 0.207 ± 0.024 | 0.189 ± 0.044 | 0.308 ± 0.017 | 0.171 ± 0.0012 | 0.176 ± 0.011 | 0.2451 ± 0.0022 | 0.269 ± 0.011
FVFLVLGPYAMF | 0.444 ± 0.032 | 0.512 ± 0.013 | 0.354 ± 0.028 | 0.609 ± 0.048 | 0.346 ± 0.013 | 0.341 ± 0.01 | 0.556 ± 0.019 | 0.415 ± 0.0026
FVGVLVLCVCRC | 0.0544 ± 0.0064 | 0.137 ± 0.015 | 0.17 ± 0.029 | 0.247 ± 0.021 | 0.116 ± 0.025 | 0.155 ± 0.025 | 0.21 ± 0.014 | 0.278 ± 0.024
FVLFCWFFCIVW | 0.293 ± 0.019 | 0.326 ± 0.029 | 0.263 ± 0.011 | 0.3625 ± 0.00095 | 0.286 ± 0.032 | 0.226 ± 0.033 | 0.342 ± 0.012 | 0.273 ± 0.043
FVSFFRWLLVSI | 0.267 ± 0.016 | 0.201 ± 0.04 | 0.358 ± 0.039 | 0.4432 ± 0.0011 | 0.211 ± 0.017 | 0.163 ± 0.015 | 0.218 ± 0.0089 | 0.152 ± 0.028
FYAAILCLLFSC | 0.478 ± 0.037 | 0.512 ± 0.014 | 0.45 ± 0.035 | 0.546 ± 0.013 | 0.22913 ± 0.00013 | 0.265 ± 0.021 | 0.385 ± 0.0066 | 0.341 ± 0.012
GCDVWCLVLRMG | 0.651 ± 0.016 | 0.68429 ± 0.00024 | 0.517 ± 0.0083 | 0.676 ± 0.031 | 0.418 ± 0.013 | 0.435 ± 0.019 | 0.63 ± 0.025 | 0.47 ± 0.018
GCFVDRVYVVVV | 0.52605 ± 0.00036 | 0.543 ± 0.043 | 0.381 ± 0.026 | 0.546 ± 0.016 | 0.366 ± 0.014 | 0.387 ± 0.022 | 0.522 ± 0.0064 | 0.4763 ± 0.00091
GCLFASWPLAVC | 0.104 ± 0.026 | 0.109 ± 0.0041 | 0.214 ± 0.022 | 0.2564 ± 0.0019 | 0.166 ± 0.008 | 0.198 ± 0.016 | 0.209 ± 0.0077 | 0.303 ± 0.043
GCSVSLCCVFVV | 0.489 ± 0.016 | 0.503 ± 0.021 | 0.36 ± 0.028 | 0.525 ± 0.01 | 0.2589 ± 0.0012 | 0.282 ± 0.025 | 0.433 ± 0.0093 | 0.372 ± 0.022
GCVGLSFCVWVG | 0.382 ± 0.011 | 0.502 ± 0.02 | 0.323 ± 0.031 | 0.523 ± 0.026 | 0.175 ± 0.015 | 0.211 ± 0.018 | 0.3965 ± 0.0014 | 0.314 ± 0.023
GDSVRVIIFCLN | 0.465 ± 0.041 | 0.707 ± 0.086 | 0.339 ± 0.054 | 0.686 ± 0.068 | 0.119 ± 0.02 | 0.136 ± 0.027 | 0.1273 ± 0.00068 | 0.304 ± 0.081
GEVLWAVLLVSC | 0.1782 ± 0.00065 | 0.208 ± 0.016 | 0.215 ± 0.029 | 0.343 ± 0.0077 | 0.164 ± 0.023 | 0.198 ± 0.038 | 0.3 ± 0.0077 | 0.299 ± 0.0047
